The text below walks through data of publication PMC3592474.

Conditions in all cases: 100 mM Na+, pH 7.5, 21 C; slow pulling (100 nm/s) for equilibrium measurements
For series [1], the system named is Nhp6Ap (Saccharomyces cerevisiae). Kind of series: optical tweezers, overstretching force, Hill fit.
Series [2] has as its system HMGB2 (box A), +/- His tag average (human). Briefly: optical tweezers, overstretching force, Hill fit.
The test system of series [3] is Nhp6Ap (Saccharomyces cerevisiae). Kind of series: optical tweezers, persistence/contour length vs concentration.
Series [4] relates to HMGB2 (box A), +/- His tag average (human). The description is as above.
For series [5], the system named is HMGB2 (box A) +his (human). The description is as above.
The subject of series [6] is HMGB2 (box A) -his (human). Described as above.
For series [7], the system named is Nhp6Ap (Saccharomyces cerevisiae). Briefly: optical tweezers, persistence/contour length, Hill fit.
The subject of series [8] is HMGB2 (box A), +/- His tag average (human). The series is described as above.
The test system of series [9] is Nhp6Ap (Saccharomyces cerevisiae). Briefly: optical tweezers, WLC/FJC linear combination fit.
Series [10] concerns HMGB2 (box A), +/- His tag average (human). Kind of series: optical tweezers, WLC/FJC linear combination fit.
In series [11] the test system is Nhp6Ap (Saccharomyces cerevisiae). Kind of series: optical tweezers, overstretching force vs concentration.
The subject of series [12] is HMGB2 (box A), +/- His tag average (human). Described as above.
Series [13] deals with HMGB2 (box A) +his (human). Described as above.
Series [14] has as its system HMGB2 (box A) -his (human). The description is as above.

Usually Kd stands for the concentration at which binding is half-saturated.

Regarding phage lambda DNA, the dissociation constant Kd in [1] came to 150 nM; in series [2], 850 nM; in [3], 71 nM; in [4], 180 nM; in series [5] it was 230 nM; in [6] it was 130 nM. Moreover, the Kd worked out at 66 nM in series [7]; 170 nM in [8]; 63 nM in series [9]; 460 nM in series [10]; 160 nM in series [11]; 880 nM in series [12]. Also, the values for the Kd in series [13] and in series [14] were 930 nM and 830 nM, respectively.
